Measurements taken from publication PMC7866390, “A Novel Multiprotein Bridging Factor 1-Like Protein Induces Cyst Wall Protein Gene Expression and Cyst Differentiation in Giardia lamblia”.

T1: MBF1 (Giardia lamblia, UniProt A8BZ03 1-107)
T1 sequence: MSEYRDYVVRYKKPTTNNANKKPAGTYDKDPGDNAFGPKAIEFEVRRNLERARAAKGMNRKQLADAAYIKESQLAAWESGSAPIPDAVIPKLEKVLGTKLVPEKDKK

B1: 18S-30/-1 (dsDNA)
DNA 1: GGCGCCCGGCCCGCGGCGCCCGCGCCCGGC
DNA 2: GCCGGGCGCGGGCGCCGCGGGCCGGGCGCC
B2: cwp1-90/-46 (dsDNA)
DNA 1: CTGGCTAACAGTCTACAGTCTACAATTTACAGTATACAATCTACA
DNA 2: TGTAGATTGTATACTGTAAATTGTAGACTGTAGACTGTTAGCCAG
B3: poly(A) (dsDNA)
DNA 1: AAAAAAAAAAAAAAAAAAAAAAA
DNA 2: TTTTTTTTTTTTTTTTTTTTTTT
B4: poly(A) with T insertion (dsDNA)
DNA 1: AAAAAAAAAAATAAAAAAAAAAA
DNA 2: TTTTTTTTTTTATTTTTTTTTTT
B5: poly(A) with TT insertion (dsDNA)
DNA 1: AAAAAAAAAAATTAAAAAAAAAA
DNA 2: TTTTTTTTTTAATTTTTTTTTTT
B6: cwp2-60/-31 (dsDNA)
DNA 1: TAGACTGATGCTGTAGAGGTCAACAGATAA
DNA 2: TTATCTGTTGACCTCTACAGCATCAGTCTA
B7: cwp2-30/+8 (dsDNA)
DNA 1: CAGCAGCTCAACAGTGGCTGGGAAAATAAAATGATCGC
DNA 2: GCGATCATTTTATTTTCCCAGCCACTGTTGAGCTGCTG
B8: cwp3-60/-31 (dsDNA)
DNA 1: GTAGACTTTGAGTTACTTAGCTCTACAGTT
DNA 2: AACTGTAGAGCTAAGTAACTCAAAGTCTAC
B9: myb2-30/-1 (dsDNA)
DNA 1: TACTAAAATAATAATTACTCTGTACTGCTA
DNA 2: TAGCAGTACAGAGTAATTATTATTTTAGTA
B10: ran-51/-20 (dsDNA)
DNA 1: TAAAATAAATTAAATCGAAATTAAAACTTTAA
DNA 2: TTAAAGTTTTAATTTCGATTTAATTTATTTTA
B11: cwp1-45/-1 (dsDNA)
DNA 1: GTTTACAACTCTCAGATCAAGAAACACAGAAATAAAATATCAGGG
DNA 2: CCCTGATATTTTATTTCTGTGTTTCTTGATCTGAGAGTTGTAAAC

biological target: T1, MBF1; test: EMSA; EMSA, 5 ng purified protein, 5'-end-labeled ds oligonucleotides, 6% polyacrylamide gel; buffer, salt, pH and temperature not given (cited to ref 19); settings: protein: recombinant; tags: C-terminal V5 and His (pET101/D-TOPO)

| Binder | binding result |
| --- | --- |
| B1 | no binding |

same assay, conditions: protein: recombinant; tags: C-terminal V5 and His (pET101/D-TOPO); label: 5'-32P

| Binder | binding result |
| --- | --- |
| B2 | binds |
| B3 | binds |
| B4 | binds |
| B5 | binds |
| B6 | binds |
| B7 | binds |
| B8 | binds |
| B9 | binds |
| B10 | binds |

biological target: T1, MBF1; test: EMSA; supershifted by anti-V5-HRP; competed by 200-fold cold cwp1-45/-1; EMSA, 5 ng purified protein, 5'-end-labeled ds oligonucleotides, 6% polyacrylamide gel; buffer, salt, pH and temperature not given (cited to ref 19); settings: protein: recombinant; tags: C-terminal V5 and His (pET101/D-TOPO); label: 5'-32P

| Binder | binding result |
| --- | --- |
| B11 | binds |
